Experimental data: paper doi:10.1101/2022.06.05.494914
pKd: −log10 of the molar value.

Biological target: PTH 1 receptor (PTH1R), his-tagged (UniProt Q03431)
Test: BLI

Chain of UniProt Q03431 (Q03431 27-593): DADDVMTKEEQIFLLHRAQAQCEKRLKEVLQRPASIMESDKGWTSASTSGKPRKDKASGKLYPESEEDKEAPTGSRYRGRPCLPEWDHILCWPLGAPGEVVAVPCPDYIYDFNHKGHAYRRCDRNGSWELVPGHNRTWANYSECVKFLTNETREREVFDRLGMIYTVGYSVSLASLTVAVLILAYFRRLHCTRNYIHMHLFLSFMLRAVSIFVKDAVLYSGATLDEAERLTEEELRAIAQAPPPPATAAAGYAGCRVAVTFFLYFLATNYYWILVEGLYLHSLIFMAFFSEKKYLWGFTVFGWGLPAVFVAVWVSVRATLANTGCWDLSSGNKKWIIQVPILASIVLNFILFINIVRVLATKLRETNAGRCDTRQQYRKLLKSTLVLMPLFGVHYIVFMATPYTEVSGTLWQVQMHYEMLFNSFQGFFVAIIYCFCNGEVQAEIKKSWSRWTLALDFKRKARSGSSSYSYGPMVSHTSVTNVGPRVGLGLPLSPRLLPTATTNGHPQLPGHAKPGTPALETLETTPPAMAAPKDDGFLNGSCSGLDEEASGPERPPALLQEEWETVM

Row | Substance | pKd
1 | PTH-Fc fusion protein | 5.64
2 | Parathyroid Hormone PTH (1-34) (peptide) | 5.64
